Measurements reported in publication doi:10.1101/2020.04.08.026906.

Molecular target: C3b (UniProt P01024)
Assay: SPR

UniProt P01024, sequence (P01024 whole entry, looked up): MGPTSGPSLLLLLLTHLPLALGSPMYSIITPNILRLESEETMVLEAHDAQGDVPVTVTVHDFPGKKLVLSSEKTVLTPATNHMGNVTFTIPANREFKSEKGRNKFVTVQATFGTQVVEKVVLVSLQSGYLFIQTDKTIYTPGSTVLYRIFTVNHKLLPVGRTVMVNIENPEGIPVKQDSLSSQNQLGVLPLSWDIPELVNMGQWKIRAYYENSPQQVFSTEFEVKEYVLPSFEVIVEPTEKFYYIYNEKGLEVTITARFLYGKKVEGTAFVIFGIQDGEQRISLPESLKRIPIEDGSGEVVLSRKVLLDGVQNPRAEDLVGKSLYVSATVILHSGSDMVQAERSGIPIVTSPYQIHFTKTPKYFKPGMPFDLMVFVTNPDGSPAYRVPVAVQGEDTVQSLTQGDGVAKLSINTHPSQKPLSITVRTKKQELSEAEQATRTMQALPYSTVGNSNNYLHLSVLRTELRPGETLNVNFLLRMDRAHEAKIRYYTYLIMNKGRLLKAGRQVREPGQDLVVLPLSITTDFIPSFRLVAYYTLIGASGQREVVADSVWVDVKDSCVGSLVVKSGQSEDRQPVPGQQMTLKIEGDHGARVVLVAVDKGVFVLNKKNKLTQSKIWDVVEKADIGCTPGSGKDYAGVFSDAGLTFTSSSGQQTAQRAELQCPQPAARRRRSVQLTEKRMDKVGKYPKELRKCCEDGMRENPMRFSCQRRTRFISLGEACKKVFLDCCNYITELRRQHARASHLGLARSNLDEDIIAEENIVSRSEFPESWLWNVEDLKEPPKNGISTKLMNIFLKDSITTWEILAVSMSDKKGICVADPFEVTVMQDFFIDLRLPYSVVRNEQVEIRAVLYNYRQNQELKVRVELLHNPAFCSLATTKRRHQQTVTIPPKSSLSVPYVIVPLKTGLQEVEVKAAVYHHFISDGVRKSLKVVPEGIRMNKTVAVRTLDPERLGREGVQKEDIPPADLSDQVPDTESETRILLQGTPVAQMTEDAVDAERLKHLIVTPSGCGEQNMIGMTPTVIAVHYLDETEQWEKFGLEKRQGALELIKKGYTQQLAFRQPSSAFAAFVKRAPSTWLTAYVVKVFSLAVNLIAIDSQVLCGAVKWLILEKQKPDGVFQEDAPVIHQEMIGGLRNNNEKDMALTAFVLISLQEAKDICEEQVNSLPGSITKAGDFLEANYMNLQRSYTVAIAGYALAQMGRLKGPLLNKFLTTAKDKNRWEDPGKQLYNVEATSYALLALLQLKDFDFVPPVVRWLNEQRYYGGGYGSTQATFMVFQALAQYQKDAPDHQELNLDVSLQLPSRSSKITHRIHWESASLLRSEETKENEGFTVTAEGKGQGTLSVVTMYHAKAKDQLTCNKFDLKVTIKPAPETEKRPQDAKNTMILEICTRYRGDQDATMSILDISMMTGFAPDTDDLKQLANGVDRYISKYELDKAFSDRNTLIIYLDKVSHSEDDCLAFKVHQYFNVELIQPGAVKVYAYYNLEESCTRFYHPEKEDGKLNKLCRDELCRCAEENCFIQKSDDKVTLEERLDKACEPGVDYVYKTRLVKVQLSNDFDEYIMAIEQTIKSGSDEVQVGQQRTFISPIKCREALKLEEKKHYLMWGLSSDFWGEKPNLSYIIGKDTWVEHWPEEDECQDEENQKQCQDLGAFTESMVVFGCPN

- KD with anti-FH.07.1 Fab' fragments: 1.9 µM
- Kd: 6 µM
Substance: plasma derived Factor H (from UniProt P08603 19-1231) (natural protein)
